# Experimental data taken from the DeepSol protein solubility set.
# Test: soluble on expression in E. coli; label from the status in PepcDB or PDB records
row,Sequence,soluble on expression in E. coli
1,KETCSTGLYTHSGECCKACNLGEGVAQPCGANQTVCEPCLDSVTFSDVVSATEPCKPCTECLGLQSMSAPCVEADDAVCRCAYGYYQDEETGHCEACSVCEVGSGLVFSCQDKQNTVCEECPEGTYSDEANHVDPCLPCTVCEDTERQLRECTPWADAECEHHHHHH,soluble
2,MGSDKIHHHHHHMEIFEDVVRCGGFRAAALGRGVSSSAISQSISVLEEALGIRLLNRTTRSVAPTEAGEQLLERLRPALYEIRTAVDDLNQLRERPSGTVRINAPGPAADHVLCPLTFEFMKIYPDVNVEIVSDAAIIDIVEQGFDAGVRFGNQLAQDMIAMPLGPALRYAIVASPDYLRKRGRPHSPRDLLQHDCIRRRFPGGTMVTWKFARDGDEVEITPKGRLTLSSAHQELQAALAGSGIAHLFEDYVRDDVEQGRLVELLCDWKQKLPSWYLYYPSRRHTSAAMRAFLEYIRNQRQHPDRR,not soluble
3,MGSDKIHHHHHHMSTFHPSHPTHNRLLAALPPIELDDLAPHLELVHLLPGDVLCKPGETLPYAYFPTSSVISIHCMLENGASSELTSVGREGMLGVSLFMGGEATQNWVSVQSAGYGYRLNAAFLLQEFNEGGMLQRLLLRYSQALITEAVQNVVCSRYHTAQQRLCRWLLSMLDRLGPQDLILTQESIASILGVRRESVTAIARKLLEAGTICYRRGHIMVIDQIGLQKETCECYKKVKKEFDQVFDEVKTCEKVRQNSINAANAL,not soluble
4,MGSDKIHHHHHHMRNWLLPEYIEDVLPRDAYRIEKIRRLIMDMLFAHGYQFVMPPLLEYVESLLAGSGSGMNLRMFKVVDQLSGRMMGLRADMTPQAARIDAHLLNISGVTRLCYASSVVHTVPDEITRTREPFQVGAELYGHSGIESDLEIQCLLLECLSVSGIHSIHLDLGHIRVFRSLIRDSGIKPEFEMELYAALWAKDISSLKELVRTGLNKRLTRSVQNALLLLPELYGDGTVLLSARQHLPDFPEIGEALDQLEHVARILQPYVDRITFDLADLRGYHYHTGMVFAVYTPGCPAPIALGGRYDEIGKSFGRARPATGFSLDLKQLSQLTDMNGYPSGILAPWKPEDEKLAAMVRQLRAEGHIVVTELPGEENQEVTGCDRKLVFRNGNWEIDPVTG,not soluble
5,HDYLMKGNLSRLVPAIERELREADERRRRRQAEEAMHAQFNQISTIFDSLNALVYVVDMNSYELLYLNKFGAQLFGEAWEGRTCHDVLHGGRSTPCDFCTNDKLIMDGKALPPYIWEYQNSISSRWYQCIDKAIRWTD,not soluble
6,MMRMKVKVVVNGKEYEVEVEEVMPGKFRVTLEGETYEVETSAGFVTSPKQVQVPTPAPTPAPAPTPTPAPAPSSKTVVSENVVSAPMPGKVLRVLVRVGDRVRVGQGLLVLEAMKMENEIPSPRDGVVKRILVKEGEAVDTGQPLIELG,soluble
7,MGSDKIHHHHHHMLLNVKQDFCLAGPGYLLNHSVGRPLKSTEQALKQAFFAPWQESGREPWGQWLGVIDNFTAALASLFNGQPQDFCPQVNLSSALTKIVMSLDRLTRDLTRNGGAVVLMSEIDFPSMGFALKKALPASCELRFIPKSLDVTDPNVWDAHICDDVDLVFVSHAYSNTGQQAPLAQIISLARERGCLSLVDVAQSAGILPLDLAKLQPDFMIGSSVKWLCSGPGAAYLWVNPAILPECQPQDVGWFSHENPFEFDIHDFRYHPTALRFWGGTPSIAPYAIAAHSIEYFANIGSQVMREHNLQLMEPVVQALDNELVSPQEVDKRSGTIILQFGERQPQILAALAAANISVDTRSLGIRVSPHIYNDEADIARLLGVIKANR,not soluble
8,MLSLKLVSQLFKQSLASGNMAIVNTAGLKYFAPPIKYQNVEQPERPKLRVIERQPQLPPNIRPPKMQKRLRYMRGPEMVHNTLLHKQYAIVATGGGRLRWGHYEMMRLTIGRKMNVNTMFATWRVPAPWQPITKKGQGQRMGGGKGAIDHYVTPIKAGRVIVEIAGKCEFVEVKQFLQQVANQLPFQATVVSQEMLDEQRVAEEEQTRQNENPFTMKYVIQNNLSGCHRWLSPVDHKWFGKHLLEHHHHHH,not soluble
9,MAHHHHHHMNRENLEELKILNLKNDKQPIYNFRCKHCNYVLFNDNEIIKHDFKISKIKKNYGNSCTSIFIEKKEWILTENKMKGVLNCPNCNIKLGKWSWTGICCSCGYLQIPAFMINSSNVDRMNISKTV,soluble
10,MGSDKIHHHHHHMKFFNREKEIEEILHIIESEPQRINFIFGSINSGKTALINEIINNRLNKDKYVVFYFDLREIFISKYDDFIEVLFEEYEEPFIDKVKRLFLSLIKDYPDVIKSYALLNITGVVDSIPIPKNTLNELLKKRNVKNVFRYITSVLIKIKREGKQPIIIIDELQKIGDLKLNGFLIYELFNYFVSLTKHKHLCHVFCLSSDSLFIERVYNEAMLEGRCKYILVDDFDRETALKFMDFLAKENNINLTNEDKELIYNYVGGKPIDIIYVINEMKYKKLEDILTSMLKEETQKLKYFLENVKEEDEELYKKVVDALKIFKDSYEIEDIKIPKKLREFLVKKNILFLNPIEGTLKPQSFLVWNAIKRIL,not soluble
11,MDSDLKKVQKNSDQKQVSKSKTATAPTEPFNSKATELPSILKPKFPSDKVLKKKKSGDMFDLVGQIVIDIVDDNPDDDDRQDEATTVDTVQEGIGATVDVTLVEDVAEKAHEPASTPNVADRLQKPVAKDDNSAPVEEANRKKKEGKDPKNSEEAKKNSKKGKNGTARRSALKGVTIPPVAASLPCPPPPPPLSERKKNVGPKPCVGPAQKNLSSQRKHSSKRNRKGLLRNVAKLWGRKSDGIANPTKAMLSKKYVPPDYGVNPVDFMPDLECYFSKNDITVRDKNKCSKGEVFVEKLPFWLARLPSDDDIPKAQIQAHRPLKQAFEGNPSLLLPKCPRTLPFCEPDSDTLEKFKQVDKQMGTDVPEQASKRLCTNTFYGTLMFEKDKSASEEVKKKKEEPKLKSLGEESKLETKPKPYDFLQKKSTKTTGERGRQKPQLQKVPPQKLETGANVQKVKKMSARGLKVEMYYKLAEKNEAETSDVSILIDGHKRKFAVICNGIGREMVDLHYDSKKFPRIFSRERHLYVMFSESTSDGFRLTFGATEREQFLRIMHSLGCLLDTAIVKFSQQSSSSQPPPMRRDSTAVFNNSYNQYTSFQQASQPRVFSTIKLELSGDSCNSAFQPSQPTGFPDNQLLTIKKSSSNQISLSVEVADKCIQTEDLVDLLADDEYCMRKALRKMIENPSFIKAVAAAENTLQYIPQAEQEGLEDVTEPPINDIFFDRFHQPQLEQHDSVPED,soluble
12,HHDITKVDTSGASEITARQDKLTLQGVDASHKLAEHDLVRMNKYKELITRVGQKHGLDPAIIAGIISRESRAGSALDHGWGDHGKGFGLMQVDKRYHKIVGAWDSEKHISQGTEILIEFIRRIQAKFPVWPKEHQLKGGISAYNAGDKNVRTYERMDVGTTGGDYSNDVVARSQWFKSQGY,soluble
13,MSLRKFKSILLIDDDETSNFISEVIIKKLGITETISTVKNGVEALNFVSNNCTINCAPTCPQIIFLDLHMPVMDGFDFLKELKKQMPLYTQKFKIFVLSSSNNPADITKTKDFDVEGYIVKPLSQEKISMLLEDVAEGHHHHHH,not soluble
14,RKIGTAFVMGDVEEVMSRSSQLVINPYHGHKEADRDIKNPENWESVMEFAQIDGVFVLDENGIIIACGRYIEASAKDLVSKIKRGLGGRHIACASITKETKAIAVVVSESGGDITVYKD,soluble
15,MEKEKSKTESLKKDEIDEANSESSKVPLAIDPEEAKLPNAGGKSEHMVVNFTSKRMAIKVRCGNALFRVEPTHMIIEPNKCRQLTINRMPGPIQKDKAIVQYLQIENDVQDPKTAFKAADSAGTKIPHLKIKLVAGASGGRQMSREVVDE,not soluble
16,MGSDKIHHHHHHMAQLVAIDNKNHLNLKVDAAKAELHGAGLHLVPAVMAEFTSMAVQYPLVITKNADTGQFVVAAMLGFESGENLFWRGGQWQGLYLPLQIRRQPFFVGNPEQNSEQKVAGDYVVCFDSESPAIVSNDGQALFSEDGVDTEYFQQAKYCLAQLLEGELANKKLLEQLQSMELLQVMQMEVTFANQQSTTLNGLYTIDTEKLAALSAEKIASLHKAGLLQAIYTLITSLGQIHHLIDLKNKQLGC,not soluble
17,MTTMNPFLVQSTLPYLAPHFDQIANHHYRPAFDEGMQQKRAEIAAIALNPQTPDFNNTILALEQSGELITRVTSVFFAMTAAHTNDELQRLDEQFSAELAELANDIYLNGELFARVDAVWQRRESLGLDSESIRLVEVIHQRFVLAGAKLAQADKAKLKVLNTEAATLTSQFNQRLLAANKSGGLVVNDIAQLAGMSEQEIALAAEAAREKGLDNKWLIPLLNTTQQPALAEMRDRATREKLFIAGWTRAEKNDANDTRAIIQRLVEIRAQQAKLLGFPHYAAWKIADQMAKTPEAALNFMREIVPAARQRASDELASIQAVIDKQQGGFSAQPWDWAFYAEQVRREKFDLDEAQLRPYFELNTVLNEGVFWTANQLFGIKFVERFDIPVYHPDVRVWEIFDHNGVGLALFYGDFFARDSKSGGAWMGNFVEQSTLNETHPVIYNVCNYQKPAAGEPALLLWDDVITLFHEFGHTLHGLFARQRYATLSGTNTPRDFVEFPSQINEHWATHPQVFARYARHYQSGAAMPDELQQKMRNASLFNKGYEMSELLSAALLDMRWHCLEENEAMQDVDDFELRALVAENMDLPAIPPRYRSSYFAHIFGGGYAAGYYAYLWTQMLADDGYQWFVEQGGLTRENGQRFREAILSRGNSEDLERLHRQWRGKAPQIMPMLQHRGLNI,not soluble
18,VTAEEHVESEPLTKRDFEALARFRFGIRRYVRFSEDTVRDHGLTPQHYQLLLALKGFPGREWATMRELADRLQLRHHSVVELVDRAQKQGLVERAPHPSDARAVRVELTEHGQLILARLSAMHRDELLRLGPALELPIWDDPPQDR,not soluble
19,MVKQRSELLFLYDVQWANPNGDPVDGNKPRIDEETGKNIVTDVRLKRTIRDYLYEYRHQEIFVREIAQDDDYIQDAKARAEDFLVKDGEKLDKSKLTLSEMKKIINDEVLRQCIDVRLFGVTLPIEKSSKEKSSITHTGPVQFKMGQSLHRVKLEYIKGTGAFASGGQMTQKTFREEYVLPYSLIAFYGVINETAARFTRLTEEDVELLVDAMWEGTKNLISRSKVGHVPRLLLRVVYQEPHFHIGELDKYISLHTEKAEEEIRDAQDYVLDVSRLIEVLAREKEKIANIELRQDERLVCNENLVDRLRQEGIVVDIR,not soluble
20,SNASKGMALRSVGGMVIESPRNETEHWLLETVGRQAQQAGIGMPTVAIYDSADINAFATGAKRDDSLVAVSTGLLHNMTRDEAEAVLAHEVSHIANGDMVTMTLMQG,soluble
21,MSLIGITQRLICNDSYHEKRECLALDWGKLFNKDLFKNFTPLPLSYEIDFSYYKHLIKAVILSGGNDLSFYSPNVLSKKRDLYEKQVIEICLEEKIPLLGICRGAQMIAHYFNSHISPCENHIGKHEVFFSKEKFISNSFHNFAIEKLGEDLVELCLAKDNTIEAFKHKYENIFGIMWHIERENGLNNIQILKEWFSLIKEGHHHHHH,not soluble
22,MAEQLSPGKAVDQVCTFLFKKPGRKGAAGRRKRPACDPEPGESGSSSDEGCTVVRPEKKRVTHNPMIQKTRDSGKQKAAYGDLSSEEEEENEPESLGVVYKSTRSAKPVGPEDMGATAVYELDTEKERDAQAIFERSQKIQEELRGKEDDKIYRGINNYQKYMKPKDTSMGNASSGMVRKGPIRAPEHLRATVRWDYQPDICKDYKETGFCGFGDSCKFLHDRSDYKHGWQIERELDEGRYGVYEDENYEVGSDDEEIPFKCFICRQSFQNPVVTKCRHYFCESCALQHFRTTPRCYVCDQQTNGVFNPAKELIAKLEKHRATGEGGASDLPEDPDEDAIPIT,soluble
23,YIWIEHRTIHQHVDESQSSLHHTEKQIQTFITQHNNSFQELDLTNHHDVTATKRELLKLIHQQPATLYYELSGPNQFITNNYEHLNTKNMYLFSTHQLKFNNSTYMLKIYMANTPRLSEIKKDSRQFALIVDQYDNILYANDDRFTIGEKYRPQQFGFMNESVKLNHADHRLIIYKDIHENIED,not soluble
